# Assay results reported in publication PMC4047056.
# Columns and labels:
# [1] = molecular target: CFP-tagged N-terminal Kv3.1 fragment (human); assay: FRET or BRET; acceptor (YFP) photobleaching FRET in HEK293 cells co-transfected with CFP- and YFP-tagged fragments in a 1:2 cDNA ratio, 48 h after transfection; only cells with YFP/CFP intensity ratio >1
# [2] = molecular target: CFP-tagged N-terminal Kv6.4 fragment (human); assay: as above
# [3] = molecular target: Kv2.1 subunit (unlabeled) (human) (UniProt Q14721)
# [4] = molecular target: CFP-tagged Kv6.4 C-terminus (human); assay: FRET or BRET; acceptor (YFP) photobleaching FRET in HEK293 cells co-transfected with CFP- and YFP-tagged fragments in a 1:2 cDNA ratio, 48 h after transfection; only cells with YFP/CFP intensity ratio >1
# CFP-tagged Kv6.4 C-terminus (human), sequence (Q8TDN1 whole entry, the tested form may be a part): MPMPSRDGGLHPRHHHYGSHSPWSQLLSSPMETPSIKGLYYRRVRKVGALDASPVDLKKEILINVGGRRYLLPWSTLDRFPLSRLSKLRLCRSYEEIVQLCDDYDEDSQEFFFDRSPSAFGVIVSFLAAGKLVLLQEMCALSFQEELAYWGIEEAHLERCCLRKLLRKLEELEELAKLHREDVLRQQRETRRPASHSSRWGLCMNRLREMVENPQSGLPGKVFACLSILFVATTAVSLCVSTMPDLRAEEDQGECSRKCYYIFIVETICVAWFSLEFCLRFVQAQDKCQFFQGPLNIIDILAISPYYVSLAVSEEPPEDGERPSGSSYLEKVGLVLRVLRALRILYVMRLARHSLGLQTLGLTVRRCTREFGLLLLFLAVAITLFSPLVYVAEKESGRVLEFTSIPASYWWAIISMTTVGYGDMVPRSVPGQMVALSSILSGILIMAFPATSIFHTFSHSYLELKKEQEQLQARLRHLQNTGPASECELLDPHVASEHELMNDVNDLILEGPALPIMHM
# [5] = molecular target: CFP-tagged C-terminal segment of Kv2.1 (human); assay: as above
# [6] = molecular target: CFP-tagged N-terminal Kv2.1 fragment (human); assay: as above
# CFP-tagged N-terminal Kv6.4 fragment (human), sequence (Q8TDN1 whole entry, the tested form may be a part): as above
# YFP-tagged N-terminal Kv3.1 fragment (domain or fragment), sequence (P48547 whole entry, the tested form may be a part): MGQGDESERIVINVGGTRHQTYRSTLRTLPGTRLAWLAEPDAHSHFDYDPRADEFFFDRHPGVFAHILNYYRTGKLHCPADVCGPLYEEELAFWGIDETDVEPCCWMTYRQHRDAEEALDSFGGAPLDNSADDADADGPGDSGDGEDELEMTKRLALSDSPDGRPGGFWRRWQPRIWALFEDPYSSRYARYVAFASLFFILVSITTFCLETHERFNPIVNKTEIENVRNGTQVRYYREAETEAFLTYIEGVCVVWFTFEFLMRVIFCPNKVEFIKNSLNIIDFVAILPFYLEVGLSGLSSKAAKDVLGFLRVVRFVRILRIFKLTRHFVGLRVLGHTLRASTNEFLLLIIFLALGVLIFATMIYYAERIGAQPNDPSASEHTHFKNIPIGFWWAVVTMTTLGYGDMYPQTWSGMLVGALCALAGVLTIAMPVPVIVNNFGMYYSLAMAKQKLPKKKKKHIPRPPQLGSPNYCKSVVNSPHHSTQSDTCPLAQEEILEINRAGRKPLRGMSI
# CFP-tagged N-terminal Kv3.1 fragment (human), sequence (P48547 whole entry, the tested form may be a part): as above
FRET efficiency [1],FRET efficiency [2],"midpoint of inactivation, V1/2, 1st component of the double Boltzmann fit (as of Kv2.1 homotetramers), whole-cell currents in HEK293 cells co-expressing Kv2.1 and Kv6.4(CKv3.1) [3]","midpoint of inactivation, V1/2, 2nd component of the double Boltzmann fit, whole-cell currents in HEK293 cells co-expressing Kv2.1 and Kv6.4(CKv3.1) [3]",FRET efficiency [4],FRET efficiency [5],FRET efficiency [6],Substance
28.8%,9.6%,–,–,–,–,–,YFP-tagged N-terminal Kv3.1 fragment (domain or fragment)
–,–,-24.3 mV,-71.1 mV,–,–,–,Kv6.4(CKv3.1) chimera in which the C-terminus of Kv6.4 was replaced by the corresponding domain of Kv3.1
–,21.3%,–,–,8.7%,8.3%,21.7%,YFP-tagged N-terminal Kv2.1 fragment (domain or fragment)
